Values of other authors in paper PMC3153048.
pKd: −log10 of the molar value.

Assays:
[1] = target: ExsE (Pseudomonas aeruginosa) (UniProt Q9I322)
[2] = target: ExsD (Pseudomonas aeruginosa) (UniProt Q9I321)
Sequence of UniProt Q9I321 (Q9I321 whole entry): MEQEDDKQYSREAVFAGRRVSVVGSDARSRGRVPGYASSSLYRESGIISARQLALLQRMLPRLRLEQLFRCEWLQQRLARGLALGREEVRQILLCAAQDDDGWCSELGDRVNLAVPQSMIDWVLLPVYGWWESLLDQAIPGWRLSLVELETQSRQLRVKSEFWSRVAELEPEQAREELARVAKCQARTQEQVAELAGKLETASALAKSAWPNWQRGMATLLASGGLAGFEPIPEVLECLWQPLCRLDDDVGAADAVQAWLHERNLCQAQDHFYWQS

Sequence of UniProt Q9I322 (Q9I322 whole entry): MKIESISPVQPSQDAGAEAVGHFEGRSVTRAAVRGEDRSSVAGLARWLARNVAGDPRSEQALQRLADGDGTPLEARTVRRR

## ExsC (from UniProt P26995)
[1]
  pKd: 9.00
[2]
  pKd: 7.74
